According to patent publication US20260116991A1 (HAINAN SIMCERE ZAIMING PHARMACEUTICAL, published 2026):
Where a chain is given by its changes, count along the chain named. Several values for one entry are separate records, joined by “and”; a condition that tells them apart may be missing. Equal entries are not always repeated.

T1: polypeptide GC3pep of human GPC3 (Ala524-Lys563) (human)
T1 construct: Residues Ala524-Lys563 of human GPC3 (NCBI NM_004484.3); coated on the ELISA plate; also called membrane proximal polypeptide GC3pep
T1 peptide: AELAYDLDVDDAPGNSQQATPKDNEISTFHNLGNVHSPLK

B1: hAb007LH3L1a (antibody, human IgG1, V domains shown)
VH: EVQLVQSGAEVKKPGSSVKVSCKASGYTFTDYEMHWVRQAPGQGLEWMGTIDPETGNTAYNQKFKGRVTLTADKSTSTAYMELSSLRSEDTAVYYCTRPYSLTYWGQGTLVTVSS
VL: DIVMTQTPLSLPVTPGEPASISCRSSQSFVHSDGDTYLQWYLQKPGQSPQLLIYKVSNRFSGVPDRFSGSGSGTDFTLKISRVEAEDVGVYYCFQGSHVPYTFGQGTKLEIK
notes: Humanized F3.81.19
B2: hAb007LH3L1 (antibody, human IgG1, V domains shown)
VH: B1 VH
VL: B1 VL with D33N
notes: Humanized F3.81.19
B3: hAb007LH3L1b (antibody, human IgG1, V domains shown)
VH: B1 VH
VL: B1 VL with D33N, G34R
notes: Humanized F3.81.19
B4: F1.73.9 human-murine chimeric antibody (antibody, human IgG1, kappa, V domains shown)
VH: QVQLKQSGAELVRPGASVKLSCKASGYTFTDYYINWVKQRPGQGLEWIARIYPGSGNTYYNEKFKGKATLTAEKSSSTAYMQFSSLTSEDSAVYFCACSTYYTMDYWGQGTSVTVSS
VL: QIVLTQSPAIMSASLGERVTMTCTASSGVSSSYLHWYQQKPGSSPKLWIYTTSNLASGVPARFSGSGSGTSYSLTISSMEAEDAATYYCHQYHRSPYTFGGGTKLEIKR
notes: Chimeric
B5: F1.92.17 human-murine chimeric antibody (antibody, human IgG1, kappa, V domains shown)
VH: EVQLQQSGPELVKPGASVKMSCKASGYTFTDYNMHWVRQSHGKSLEWIGYINPNNGDTIYNQNFKGKATLTVNKSSSTAYMELRSLTSEDSAVYYCSRTITYYYSMDYWGPGTSVTVSS
VL: QIVLTQSPALMSASPGEKVTMTCSASSSVSYMYWYQQKPRSSPKPWIYLTSNLASGVPARFSGSGSGTSYSLTISSMEAEDAATYYCQQWSSNPLTFGAGTKLELKR
notes: Chimeric
B6: F1.136.7 human-murine chimeric antibody (antibody, human IgG1, kappa, V domains shown)
VH: EVQLQQSGPVMVKPGPSVKISCQTSGFTFTDYYIHWVKQSHGKSLEWIGLVFPYDGGTNYNQKFKDKATLTLDTSSSTAYMELNSLTSEDSAVYYCARAGGFSYALNYWGQGTSVTVSS
VL: DIQMTQSPSSLSASLGGKVTITCKASQDINNYIAWYQHKPGKGPRLLIHFTSTLQPGIPSRFSGSGSGRDYSFSISNLEPEDIATYYCLQYDNLLLTFGAGTKLELKR
notes: Chimeric
B7: F1.42.8 human-murine chimeric antibody (antibody, human IgG1, kappa, V domains shown)
VH: HVQLQQPGAELVKPGASVKLSCKASGYTFTSYWMHWVRQRPGQGLEWIEMIHPNSGSTNYNEKFKSKATLTVDKSSSTAYMQLSSLTSEDSAVYYCARGNYNSSLYAMDYWGQGTSVTVSS
VL: DIQMTQTTSSLSASLGDRVTISCSASQGISNYLNWYQQKPDGTVKLLIYYASNLHSGVPSRFSGSGSGTAYSLTISNLEPEDIATYYCQQYSILPYTFGGGTKLEIKR
notes: Chimeric
B8: F4.13.7 human-murine chimeric antibody (antibody, human IgG1, kappa, V domains shown)
VH: QVQLQQPGAELVKPGASVKLSCKASGYTFTNNWVHWVKQRPGQGLEWTGMIHPDSGSTIYNEKFQSKATLTVDKSSSTAYMQLSSLTSEDSAVYYCARGYYDSSSYYAMDYWGQGTSVTVSS
VL: B7 VL with D1N, S30F, A51T, N53S, A70D, I93K, Y96W
notes: Chimeric
B9: F1.78.24 human-murine chimeric antibody (antibody, human IgG1, kappa, V domains shown)
VH: QVQLQQSGAELVKPGASVKMSCKASGYTFTTYPIEWMKQNHGKSLEWIGNFHPYNDDTNYNVKFKGKATLTVEKSSSTVYLELSRLTSDDSALYYCARRREYYGSFDVWGTGTTVTVSS
VL: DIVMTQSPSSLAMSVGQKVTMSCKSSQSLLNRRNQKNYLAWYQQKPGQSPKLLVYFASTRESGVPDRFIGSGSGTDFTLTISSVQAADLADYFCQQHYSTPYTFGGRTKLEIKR
notes: Chimeric
B10: F1.2.14 human-murine chimeric antibody (antibody, human IgG1, kappa, V domains shown)
VH: RVQLQQSGAELVKPGASVRMSCKASGYTFTAYSIEWMKQNLGKSLEWIGNFRPYNDDTKYNENFKGRATLTVEKSSATVYLELSRLTSDDSAVYYCARSGPTDYFDYWGQGTTLIVSS
VL: DIQMTQSPASLSASVGETVTITCRASDNIYSYLAWYQQKQGQSPQLLVYNAKTLAEGVPSRFSGSGSVTQFSLKIISLQPEDFGTYYCQHHFGTPRTFGGGTKLEIKR
notes: Chimeric
B11: F1.57.21 human-murine chimeric antibody (antibody, human IgG1, kappa, V domains shown)
VH: QVQLQQSGAELARPGASVKLSCKASGYTFTSYGISWVKQITGQGLEWIGEIYPRSESTYYNEKFKGKATLTADKSSSTAYMELRSLTSEDSAVYFCARDYGNIYSFAYWGQGTLVTVSA
VL: B10 VL with A25T, D27E, Q42K, V68G, I76N, T85S, F92Y, R96L, G100A, I106L
notes: Chimeric
B12: F1.145.22 human-murine chimeric antibody (antibody, human IgG1, kappa, V domains shown)
VH: QVQLQQSGTDLARPGASVKLSCKASGYTFTSFGISWVKQRTGQGLEWIGEIYPRSGSPYYNEKFTGKATLTADKSSSTAYMELRSLTSEDSAVYFCAKDFGSSYVFDYWGQGTALTVSS
VL: B10 VL with D27E, A34T, Q42K, V68G, I76N, F92Y, R96P, G100T, E105D, I106L
notes: Chimeric
B13: F1.83.6 human-murine chimeric antibody (antibody, human IgG1, kappa, V domains shown)
VH: QVQLQQSGPELVKPGASVKISCKASGYAFSSSWMNWVKQRPGKGLEWIGRIYPGDGDTNYNGRFKGKATLTVDKSSSTAYMQLSSLTSEDSAVYFCARGGVFTMALDHWGQGTTLTVSS
VL: DIQMTQSPSSLSASLGGKVTITCKASQDINKYIAWYQHKPGKGPRLLIHYTSTLQPGIPSRFSGSGSGRDYSFSISNLEPEDIATYYCLQYDNLFTFGGGTKLEIKR
notes: Chimeric
B14: F4.18.4 human-murine chimeric antibody (antibody, human IgG1, kappa, V domains shown)
VH: QVQLHQSGAEMAKPGASVNLSCKTSGFTFTDYGISWVKQRTRQGLEWIGDIYPRHINIYYNEKFKDKATLTADRSSSTAYMELRSMTSEDSAVYFCARRGTTGRGALDYWGQGTSLTVSS
VL: DILLTQSPAILSVSPGERVSFSCRASQSIGTSIHWYQQRTNGSPRLLIKYAFESISGIPSRFGGSGSRTDFTLTINSVESEDIADYYCQQTYNWPYTFGGGTKLEIKR
notes: Chimeric
B15: F1.3.9 human-murine chimeric antibody (antibody, human IgG1, kappa, V domains shown)
VH: QVQLQQPGTELVKPGASVKLSCKASGYTFTSYWIHWVKQRPGQGLEWIGNINPPNAGTNYNEKFKSKATLTVDKSSSTAYMQLSSLTSEDSAVYYCARGRWLLHDYWGQGTTLTVSS
VL: DIQMTQSPASLSISVGETVTITCRASENIYSNLAWYQQKQGKSPQLLVYGTKNLAEGVPSRFSGSGSGTQYSLKINSLQSEDFGNYYCQHFWGTPYTFGGGTKLEILR
notes: Chimeric
B16: F1.21.8 human-murine chimeric antibody (antibody, human IgG1, kappa, V domains shown)
VH: EVQLQQSGPELVKPGASVKISCKTSGFLFTGHYMHWVKSSHGNILDWIGYIYPYNAISFYNQKFKGKATLTVDKSSNTAYMELRSLTSEDSAVYYCARGDYGNYVTAYWGQGTLVTVSA
VL: DVLMTQTPLSLPVSLGDQASISCRSSQSIVHSSGNTYLEWYLQKPGQSPKLLIYKVSNRFSGVPDRFSGSGSGTDFTLKISRVEAEDLGVYYCFQGSHLPWTFGGGTKLDIKR
notes: Chimeric
B17: F1.115.8 human-murine chimeric antibody (antibody, human IgG1, kappa, V domains shown)
VH: EVQLQQSGPELVKPGASVKMSCKASGYTFTEYYMHWVKQSHGKSLEWIGYIYPNNGGNGYNQKFKGKATLTVDKSSSTAYMGLRSLTSEDSAVYYCVRGYYSNWYFDVWGTGTTVTVSS
VL: B16 VL with S33N, N35K, L99V, W101F, G105S, D110E
notes: Chimeric
B18: F1.111.11 human-murine chimeric antibody (antibody, human IgG1, kappa, V domains shown)
VH: EVQLQQSGPELVKPGASVKISCKASGYTFTDYYMNWVKQSHGKSLEWIGDIYPNNGDTTYNQRFKGKATLTVDKSSSTAYMELRSLASEDSAVYYCACPYNNPFGYWGQGTLVTVSA
VL: B16 VL with L3V, I29L, S33N, E39H, Y92F, F94S, G96S, S97T, L99V, D110E
notes: Chimeric
B19: F1.62.9 human-murine chimeric antibody (antibody, human IgG1, kappa, V domains shown)
VH: QVQLQQSDAELVKPGASVKISCKVSGYIFTDHTIHWMKQRPEQGLEWIGYIYPRDGSIKYNENFKGKATLTADKSSSATYMQLNSLTSEDSAVYFCARPIYYDYAYYFDYWGQGTTLTVSS
VL: DVVMTQSPLSLPVSLGDQASISCRSRQSLVHSNGNTYLHWYLQKPGQSPKVLIYKVSNRFSGVPDRFSGSGSGTDFTLKISRVEAEDLGVYFCSQSTHVPYTFGGGTKLEIKR
notes: Chimeric
B20: F1.110.24 human-murine chimeric antibody (antibody, human IgG1, kappa, V domains shown)
VH: EVKLVESGGGLVQPGGSLKLSCAASGFTFSDFYMYWVRQTPEKRLEWVAFISNGGGSTYYPDTVKGRFTISRDNVKNTLYLQMSRLKSEDTAMYYCARPDTSWFAYWGQGSLVTVSA
VL: DIQMTQTTSSLSASLGDRVTISCRASQDIDNYLNWYQQKPDGTVKVLISYTSRLHSGVPSRFSGSGSGTDYSLTISNLEQEDIATYFCQQGNTLPWTFGGGTKLEIKR
notes: Chimeric
B21: GC33 IgG (antibody, V domains shown)
VH: B1 VH with E1Q, S16A, T50A, I51L, E54K, N57D, N61S, R87T, P99F, L102Y
VL: DVVMTQSPLSLPVTPGEPASISCRSSQSLVHSNRNTYLHWYLQKPGQSPQLLIYKVSNRFSGVPDRFSGSGSGTDFTLKISRVEAEDVGVYYCSQNTHVPPTFGQGTKLEIKR
notes: Complete IgG form of the control antibody GC33; also called codrituzumab
B22: hAb001H1L1b (antibody, human IgG1, V domains shown)
VH: EVQLVESGGGLVQPGGSLRLSCAASGFSFNTNAMNWVRQAPGKGLEWVGRIRSKSNNYATYYADSVKDRFTISRDDSKNSLYLQMNSLKTEDTAVYYCVRDGYYVLFAYWGQGTLVTVSS
VL: B1 VL with S25F, F29I, H31N, D33N, G34A, D35N, Q39E, Y41F, Y101F
notes: Humanized F2.169.2, H1+L1b

The binders below were run against T2, murine GPC3-His protein (Sino Biological, Cat. No. 50989-M08B) (murine, UniProt Q8CFZ4 25-558) (assay: ELISA, coated antigen).
T2 construct: Bought protein; also called murine GPC3 protein; mouse GPC3-his protein; not shown: His tag
T2 sequence (Q8CFZ4 25-558 limits assumed): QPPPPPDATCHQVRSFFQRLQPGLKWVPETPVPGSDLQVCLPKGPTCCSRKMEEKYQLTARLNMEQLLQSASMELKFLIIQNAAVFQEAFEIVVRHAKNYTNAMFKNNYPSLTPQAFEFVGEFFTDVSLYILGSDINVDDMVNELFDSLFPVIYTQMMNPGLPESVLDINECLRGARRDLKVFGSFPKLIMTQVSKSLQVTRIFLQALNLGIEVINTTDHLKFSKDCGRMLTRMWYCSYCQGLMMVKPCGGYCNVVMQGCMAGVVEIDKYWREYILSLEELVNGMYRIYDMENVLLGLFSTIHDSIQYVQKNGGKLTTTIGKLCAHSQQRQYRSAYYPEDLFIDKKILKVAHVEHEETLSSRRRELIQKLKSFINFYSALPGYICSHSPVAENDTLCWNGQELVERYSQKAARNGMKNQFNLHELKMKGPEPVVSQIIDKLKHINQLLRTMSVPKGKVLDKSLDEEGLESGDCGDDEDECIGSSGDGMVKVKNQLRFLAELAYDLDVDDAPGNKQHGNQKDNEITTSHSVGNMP
B1: no binding. B2: no binding. B3: no binding.

Biological target: T1, polypeptide GC3pep of human GPC3 …
Assay: ELISA, coated peptide
B4: no binding (tested: 100 nM). B5: no binding (tested: 100 nM). B6: no binding (tested: 100 nM). B7: no binding (tested: 100 nM). B8: no binding (tested: 100 nM). B9: no binding (tested: 100 nM). B10: no binding (tested: 100 nM). B11: no binding (tested: 100 nM). B12: no binding (tested: 100 nM). B13: no binding (tested: 100 nM). B14: no binding (tested: 100 nM). B15: no binding (tested: 100 nM). B16: no binding (tested: 100 nM). B17: no binding (tested: 100 nM). B18: no binding (tested: 100 nM). B19: no binding (tested: 100 nM). B20: no binding (tested: 100 nM).

What follows are binders tested against T3, GPC3 on HepG2 cells (human, UniProt P51654 25-554) (assay: FACS on HepG2 cells).
T3 construct: whole, on cells; also called glypican-3
In the case of B21, the EC50 is reported as 1.56 nM and 1.21 nM. With B22 the EC50 was 0.918 nM and the “Max MFI” value was 4090.
